Results reported in paper PMC8060857.

Biological target: HR-C1 peptide (SARS-CoV (Urbani strain)) (UniProt P59594)
Assay: SDS-PAGE of samples not heated

## HR-C1 peptide (from UniProt P59594 1147-1185)
  stoichiometry N: 3
